Target: recombinant human integrin α5β1 (human) (UniProt P08648)
UniProt P08648, sequence (P08648 42-1049, chain 1 of 2): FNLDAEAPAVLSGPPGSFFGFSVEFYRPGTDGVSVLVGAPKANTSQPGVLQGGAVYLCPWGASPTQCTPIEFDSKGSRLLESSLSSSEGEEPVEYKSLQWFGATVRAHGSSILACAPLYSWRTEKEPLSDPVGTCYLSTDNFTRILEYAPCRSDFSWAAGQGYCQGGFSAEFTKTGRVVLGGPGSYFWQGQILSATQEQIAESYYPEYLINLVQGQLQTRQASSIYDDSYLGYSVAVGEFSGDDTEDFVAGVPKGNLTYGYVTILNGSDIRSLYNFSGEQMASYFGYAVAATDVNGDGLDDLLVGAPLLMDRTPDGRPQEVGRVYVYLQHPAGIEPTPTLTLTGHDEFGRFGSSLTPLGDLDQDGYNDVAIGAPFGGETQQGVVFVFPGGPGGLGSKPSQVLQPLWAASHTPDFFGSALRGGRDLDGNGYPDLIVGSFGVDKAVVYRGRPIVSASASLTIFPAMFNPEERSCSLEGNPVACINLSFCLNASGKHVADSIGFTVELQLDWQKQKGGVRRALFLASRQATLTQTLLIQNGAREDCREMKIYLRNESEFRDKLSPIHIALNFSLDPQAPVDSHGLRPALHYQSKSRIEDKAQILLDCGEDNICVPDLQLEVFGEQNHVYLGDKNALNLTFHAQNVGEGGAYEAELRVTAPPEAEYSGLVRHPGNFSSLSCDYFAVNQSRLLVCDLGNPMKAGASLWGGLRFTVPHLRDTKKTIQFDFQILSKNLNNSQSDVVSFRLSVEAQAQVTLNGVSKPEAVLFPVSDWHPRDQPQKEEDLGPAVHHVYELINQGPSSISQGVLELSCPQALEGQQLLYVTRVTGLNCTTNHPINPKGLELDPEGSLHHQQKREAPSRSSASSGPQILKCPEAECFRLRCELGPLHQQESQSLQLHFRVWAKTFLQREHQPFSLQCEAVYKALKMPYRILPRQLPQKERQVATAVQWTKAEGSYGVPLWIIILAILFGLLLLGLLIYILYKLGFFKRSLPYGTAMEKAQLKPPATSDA
UniProt P08648, sequence (P05556 21-728, chain 2 of 2, further chain): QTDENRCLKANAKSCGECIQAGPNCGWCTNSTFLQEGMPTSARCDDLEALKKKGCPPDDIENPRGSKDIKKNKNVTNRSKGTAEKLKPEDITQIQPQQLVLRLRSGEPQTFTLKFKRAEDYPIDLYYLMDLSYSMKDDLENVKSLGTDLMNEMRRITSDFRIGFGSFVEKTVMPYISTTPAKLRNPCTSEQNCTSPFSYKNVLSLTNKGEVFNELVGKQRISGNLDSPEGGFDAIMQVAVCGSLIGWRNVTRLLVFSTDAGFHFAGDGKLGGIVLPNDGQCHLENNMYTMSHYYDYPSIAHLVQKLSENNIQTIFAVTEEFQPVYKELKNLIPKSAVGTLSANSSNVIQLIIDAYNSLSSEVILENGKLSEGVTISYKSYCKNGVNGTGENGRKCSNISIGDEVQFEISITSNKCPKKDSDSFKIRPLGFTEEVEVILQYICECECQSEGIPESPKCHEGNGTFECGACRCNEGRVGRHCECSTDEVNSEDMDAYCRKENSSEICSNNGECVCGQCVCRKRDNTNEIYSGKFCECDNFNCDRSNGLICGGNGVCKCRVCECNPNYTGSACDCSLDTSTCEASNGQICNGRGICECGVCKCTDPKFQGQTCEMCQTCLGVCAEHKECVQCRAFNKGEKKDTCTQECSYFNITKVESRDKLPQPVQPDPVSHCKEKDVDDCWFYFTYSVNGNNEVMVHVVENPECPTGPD

reduction of adhesion of HTR8/SVneo cells to native PSG1 (30 μg/mL coated) by a neutralizing antibody to integrin α5, 21% oxygen: 45% | reduction of adhesion of HTR8/SVneo cells to native PSG1 (30 μg/mL coated) by a neutralizing antibody to integrin β1, 21% oxygen: 90%
Substance: native PSG1 (pregnancy-specific glycoprotein 1) purified from the serum of pregnant women (from UniProt P11464 35-419) (natural protein)
